Assay results from the supplement of paper PMC12636428.

Tested on: Saccharomyces cerevisiae
Assay: transcriptional activation domain activity (GFP:mCherry ratio, weighted mean of sorted bins, harmonized to initial dataset scale) (arbitrary fluorescence ratio units); higher = stronger transcriptional activation
Details: beta-estradiol 1 µM; induction time 4 h
Protocol: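 53-aa protein tiles (fungal proteins plus yeast TF control tiles) fused C-terminally to a DBD-estrogen-binding domain-mCherry synthetic TF, integrated in S. cerevisiae (URA3 locus) with a GFP reporter. Cells were induced with 1 uM beta-estradiol for 4 h at 30 C, FACS-sorted into 8 bins by GFP:mCherry ratio and barcodes sequenced. Activity is the read-weighted mean bin fluorescence (GFP:mCherry), averaged over barcodes (median 12); tiles under 50 reads were discarded. New active-learning values were harmonized by linear fit onto the scale of the initial (Hummel et al.) dataset. The assay saturates at low and high signal.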

Sequence | transcriptional activation domain activity
ALNTFLDGLVFQLFPMVADLWIAAAYFFVVFDAYYSLMVISVTWFYIWMTIYM | 55200
ALNWYFLGTTMYFLYGESVIYYFKHILLVDRIFLPLATHHRFISFMLYILGFV | 66300
ALPERIKTFHAHGIFLALHCFLLQHGPQPISIWLLLALIKGRRRCLFPSIFFC | 36200
ALRDSKSSDPKVKKEGEDFLAQLRIGKSYLHGLDAEGRPMCIVRARLHRAGEQ | 48900
ALRHRYIIGTSLCRLFIPLYFFACPYNTLFQDPNPLVWILLLYVSAQALLLLL | 63900
ALRLCRSLLFLCFPFTPIHFFWGSYSDFPPFFFLPAFPRLTLSLLLFYLLPFS | 55100
ALRREYLTLNGFMPSRINWAIQSSGVDYLHLLIIAMEHLITRFRLSARLAITV | 53800
ALRRRTTDDGRLPREDLVHSEISVAVVSSPLSFASRFSPTPAVAVLVTALPVV | 80600
ALSAWIIIQGYRVQWKTILLHDNLFVFTAASKSWVFAHAVYRFVLLTLPCFGS | 40700
ALSSASSALSPLSGDPITTTETNKSYPLDSEQSLLEPDKTEEDAINQSKESNM | 15300
ALSTADGGRVPAKRARKAINCGPCRLSKLKCDRERPCSSCKLRGTTASCYQGQ | 34000
ALSTRPFVLSDMIFFFGVGTLITLPIPFLVIYDYPYKKPRTYQVYLLICVWAW | 61500
ALTLEYFYFECSTPVPDGLLTDPLPPLPKLLVIHFFFYLSQHTIYLLLHILSQ | 60200
ALTLVDPQGVLKCRIVLFCVIRGSVMVLGWWNYKLMHRWLLPGIIQCLSNIPV | 64500
ALVADPEYQRELDYMANGKQLLVPLRYLLNLVWRYCHGAQTICFSFFLLHGRN | 64200
ALVLLYIIRFVCTTLAKRFPSKSKLFFFMSTLRTVFVILLYTMISWLVNRHSR | 44800
ALVRCCLSKVVYVALEFISICTMPESAKGVINLIDNLSPYARKDLVHLRGWVC | 51800
ALVTVLLLLMGYLPHLNTVTLTVRTFRNRLSHHDFSQHELAIFLDLLPRRCPN | 98800
ALYFMVIFTSHIIYTFTLILGRPIVQVIPALYGLLSFLADSDLLFILPLCRMG | 55000
ALYGLQAVVFVVIPLLQIIQIALILCQFFVANYFTIFSFVNVLFIIVAVFAFL | 41400
ALYLWTRHVGFANFVKLYFVPFMCVNHWIVMLTYLHHCDPTIPYFRRTQWSFL | 30800
ALYSLFIECTLAPMLLKAIKDRVGEITLDFCWRAYKVYLTSICYLWKNVSLII | 40600
ALYSLKGRELGWLCLTICTFDGKSWMEFGAFSRRGLFTYNYGLLQPNTKRIAV | 35700
AMAEKAAEEKPAAKKRGRPPKGPTMVEVVVEAPPAKKRGRPAKEDGAAAAATA | 20000
AMDGVAQLHALLGGCHTRLAGLVFSTFEAAVLLVYLCVDPMFPRDCPHQHVPP | 57400
AMERLRAAEKTAKEKRLCLYANAPAANSSSKGTTAATSRGGAFEATVVRVWSG | 61100
AMFAVSILIMIQVNTSAVFFAVDTMLLYLCMELGFTFIYTILVTSRLLVMRCQ | 56600

Sequence | transcriptional activation domain activity
AMKDIEIVKDEETGAPIVRLRGEAAAAAKKAGVQDITLSISHSDNQAIAVAVA | 58900
AMLMSLFVSVFCVYGVFIHVAASALQYQIVFFSPCIYMMLICGLSFLCCESPR | 75700
AMPTFDLVMWYREFQRILLEMRAYVIYKATVLPRWSNPSYDRPFPVLPVRGVI | 48600
AMRSWSGLMVLSMYDFRPIRSLIASILFPNAAIRETVLDLLFSLLRIKPPAWA | 38100
ANDDDGEEQEEQEEKPKKKRKRTASTPAETAGAGPSKPKPRPRPKKTSAVVPP | 28200
ANEEAEPEHPEPAAEANDSTGREGRGRGKRGRDRGRGRGRGRGGRSGRGGASG | 27600
ANEYNVVCSILVFWSDTVPLWGFFLIFWFFFLGFQLLGVESFGEAEFWLALLK | 62200
ANGDDSAAPKPEGQEDKPVESNGASASAAAPSEPQQQEGQPKAEPAEPAPATV | 26400
ANGSSATTPEPDGKTAAGTAAVPKRKQTEKKANGPTKKQKTGSPKKGGRKGAS | 27700
ANHQIYLDWWYTWCLAYFMDTHRDVCIVLKKSLKWVPIFGWAMHQFFNFIFLA | 41800
ANHQVYADWWYAWCLTYYTGTYKDVFIVLKKSLKWVPVLGWGMQSFRFIFLAR | 79000
ANHQVYVDWWYTWCLTYFMETHRDVCIVLKKSLKWIPVAGWGMQFFKFIFLAR | 39400
ANLAFPDDNSTNIQLQPFSESQSQNKFDYDMFFRDSSKEGNNLFGEFLEDDDD | 92800
ANLYVVLTLYSYTWIQVLIVSLSILLYFVFIAIYSQFNTFIFAGHIRLFGNGL | 57500
ANPEPTDDDFHIFGGRHVFFTTDDPWLIFLGFILQHLDRLLNRMLFWWCVEWV | 56900
ANPLSDSASFLSEENEDDAFGALNYNSLDATTMSAFDNNVDPFNILKSSPAQD | 66600
ANQCGEVDMLSRILLIVVTYLVILRRYRDALDIIERQALPMTLALGRPLWIGR | 62400
ANRCSFFALEFSVGISWSTVGADFYVYYPTNTSKRLTFFMTWAGLWISLIFVN | 47200
ANRIAIRLFHFLLECPDEMTRLVAIKKYIKNTYMIPTYLVTVNCILRLAGYWK | 55900
ANRRMSLVCFLFIVVRYVSIAALVLNGVGFYGTMFDMDSCTHFRLAPPVTKMV | 44900
ANVSATAAPIVAVKRGRGRPRKDPSETQAAKKAAAAAVAPDGAKRGRGRPRLV | 45200
APAAADEEQEGESKNKKKKKKKGAKKAEADEEAVEAAAPAKGKKKGGAPIAAL | 54700
APAAEPVAAATIEEAPKETAEASTATEETAEEKKEEKEKKEKEKKAKLGRRLS | 30700
APAPIAAEPAPAPAVETPAPAPAPATEEKKEEAAAPAVEATPAPAAAPAAATT | 30500
APAQPAATGGGLFGSGATGTTGGFGSNTAGGFGTGGGFGAKPAFGATPSTTGG | 15600
APATTAAATTSATPAVTSTLLAKPATTTTSTATPAPAAAGSLFGGAKAAGTTA | 37000
APDAKTVLPIPELDDAVVESFFSSSTDSTPMFEYENLEDNSKEWTSLFDNDIP | 137000

Sequence | transcriptional activation domain activity
APDQPLTTQGKPRTRVYVACIQCRSRKIRCDGAKPVCHNCSHRASSAVGGVLE | 18000
APFFLPPFHFFFPFFPFPFFLGSFPFLFSFPFPFSFPFFLFHFPSFFPFLPSF | 65400
APFSKGPRMWNEVYITSLAHGCLVNRLFCSLAWCELYLIFGNIFRRLDLKLFV | 58100
APIDCPHRRLEVIMGLRPTRHIVLSILGLVITGFVSMDRADCIEFLLDLEPGD | 39800
APIILGFSCGVCIHHLLACCIFVMIFIIRIFDPVYIPSMVLLFLCSCLSDRHG | 69700
APKAAAPPPAPVPAPAPVAAPAPAASVELGPDGQPKRRRGRPKGSKNKPKIPP | 35700
APKDESEAPKPAEEDSPSKRKKAEEVKIEKKEETPARPEPQHTQPKQPAAKAK | 10100
APKEETTKPTIEVKIDVGSRCEVESTEPGLSKRGTVRFVGQTSFGNGEGVWVG | 42200
APMGRRTFAVDVDESGNSLAKKVKAARVKGYNYIIVVGERDLERGTAAVECVV | 36000
APPAAAAAAAAAPAKKAKKAKKAKKAGLLQKAKKAKKAKKAKKAAAAAAAPAA | 8130
APPEGGDKSESKEPPKKEESAPTEAKPAEPKEENKPEAKQASNKETKPESSKP | 23300
APPPAAAPSQPASQPAPAEKHEEPAPQPSPEPQPEPQAQIEESKQEPAPEPQA | 20300
APPPPPPPPPPAPPARSGAPPPPPPPPPPPMGGAPPPPPPPMGGPPPPPPPPP | 36400
APPPPPPPPPPPPPPPSSSSAPSPSSTSAPPPPPPPPPPPPPPPGGGGPPPPP | 32900
APPPPQPAPPVSVAPSKKTSKSKVDAPASNNEPEPVSAPKKGRKGKSKAIAQT | 12200
APPPREGGARGGRGGRGRGEFRGGEGRGRGEGRESRGGEGRGRGGEGRGEFRG | 25900
APPSSKPSPPPTSAASPAAPRAASPRPRAASSAGCRPRRGATRCCSRARASRS | 39400
APQGEEKAPAPRRSKRAKTAAPSDQETEETATKVVAGKAGAGKGKAVAAKAAA | 51800
APQPVEATAIDDGFQEAKRGRGRKKAKEEVVASAPAAPADAPQVAKAKVVASA | 23300
APRARPAPAQRVGPRARAAEQLHRADGQHRERARRQHGRRHPPAAGAAPAVRL | 52800
APSAARRSHTKSSPSSGTSPSGPPSARTSSRCTPPPRSSSPSGRRRSSCCKRS | 45900
APSDTNGNGKRKQTKSRNGCTTCKAKRLKCDETKPHCKQCARRSVQCGGYRKE | 39400
APSIRYRLPFDSLLFVFCGTLLCTLIFLREALIPHFPCWVLLWGAYILLPLCF | 15900
APSPPPAPEPVPEMKAIEAAPEPEPEPEPEDKWDVPVVAKKGKKAKKGAASQA | 25000
APSPTPDDDADMKKKDGDGKKDGEDGKKKMKMVTALKNCSFTVPAGTTAALVG | 39400
